# Experimental data: patent US20240209076A1 (KODIAK SCIENCES, published 2024)
# Numbering of substitutions follows the chain as printed. In names and notes the source's numbering stands.
# B1: Anti-IL-6 antibody, heavy chain S35H, G66D / light chain M32L, M50D, N52S, M88Q (antibody, IgG1, V domains shown)
# VH: EVQLVESGGGLVQPGGSLRLSCAASGFTFSPFAMHWVRQAPGKGLEWVAKISPGGSWTYYSDTVTDRFTFSLDTSKSTAYLQMNSLRAEDTAVYYCARQLWGYYALDIWGQGTLVTVSS
# VL: DIQLTQSPSSLSASVGDRVTITCSASISVSYLYWYQQKPGKAPKLLIYDDSSLASGVPSRFSGSGSGTDFTLTISSLQPEDFATYYCQQWSGYPYTFGQGTKVEIK
# notes: IgG1; variable domains only; VL is variant III
# B2: Anti-IL-6 antibody, heavy chain S35H, G66D, L100A / light chain M32L, M50D, N52S, M88Q (antibody, IgG1, V domains shown)
# VH: B1 VH with L100A
# VL: B1 VL
# notes: as for B1
# B3: Anti-IL-6 antibody, heavy chain S35H, G66D, L100G / light chain M32L, M50D, N52S, M88Q (antibody, IgG1, V domains shown)
# VH: B1 VH with L100G
# VL: B1 VL
# notes: as for B1
# B4: Anti-IL-6 antibody, heavy chain S35H, G66D, L100K / light chain M32L, M50D, N52S, M88Q (antibody, IgG1, V domains shown)
# VH: B1 VH with L100K
# VL: B1 VL
# notes: as for B1
# B5: Anti-IL-6 antibody, heavy chain S35H, G66D, L100Q / light chain M32L, M50D, N52S, M88Q (antibody, IgG1, V domains shown)
# VH: B1 VH with L100Q
# VL: B1 VL
# notes: as for B1
# B6: Anti-IL-6 antibody, heavy chain S35H, G66D, L100S / light chain M32L, M50D, N52S, M88Q (antibody, IgG1, V domains shown)
# VH: B1 VH with L100S
# VL: B1 VL
# notes: as for B1
# B7: Anti-IL-6 antibody, heavy chain S35H, G66D, L100T / light chain M32L, M50D, N52S, M88Q (antibody, IgG1, V domains shown)
# VH: B1 VH with L100T
# VL: B1 VL
# notes: as for B1
# B8: Anti-IL-6 antibody, heavy chain S35H, G66D, L100V / light chain M32L, M50D, N52S, M88Q (antibody, IgG1, V domains shown)
# VH: B1 VH with L100V
# VL: B1 VL
# notes: as for B1
# B9: Anti-IL-6 antibody, heavy chain WT / light chain WT (antibody, IgG1, V domains shown)
# VH: B1 VH with H35S, D66G
# VL: B1 VL with L32M, D50M, S52N, Q88M
# notes: IgG1; variable domains only; also called parent; wild-type
# B10: anti-IL-6 antibody, heavy chain WT / light chain M32L, M50D, N52S, M88Q (antibody, IgG1, V domains shown)
# VH: B1 VH with H35S, D66G
# VL: B1 VL
# notes: Full IgG1 (Expi293); VL = variant III
# B11: anti-IL-6 antibody, heavy chain G66D / light chain M32L, M50D, N52S, M88Q (antibody, IgG1, V domains shown)
# VH: B1 VH with H35S
# VL: B1 VL
# notes: as for B10
# B12: anti-IL-6 antibody, heavy chain S35H, G66D / light chain M32L, M50D, N52S, M88Q (antibody, IgG1, V domains shown)
# VH: B1 VH
# VL: B1 VL
# notes: as for B10
# B13: anti-IL-6 antibody, heavy chain T63E, G66D / light chain M32L, M50D, N52S, M88Q (antibody, IgG1, V domains shown)
# VH: B1 VH with H35S, T63E
# VL: B1 VL
# notes: as for B10
# B14: anti-IL-6 antibody, heavy chain T63K, G66D / light chain M32L, M50D, N52S, M88Q (antibody, IgG1, V domains shown)
# VH: B1 VH with H35S, T63K
# VL: B1 VL
# notes: as for B10
# B15: dual inhibitor molecule G (AntiIL-6-VEGF Trap) (other)
# heavy: EVQLVESGGGLVQPGGSLRLSCAASGFTFSPFAISWVRQAPGKGLEWVAKISPGGSWTYYSDTVTDRFTFSLDTSKSTAYLQMNSLRAEDTAVYYCARQLWGYYALDVWGQGTLVTVSSASTKGPSVFPLAPSSKSTSGGTAALGCLVKDYFPEPVTVSWNSGALTSGVHTFPAVLQSSGLYSLSSVVTVPSSSLGTQTYICNVNHKPSNTKVDKKVEPKSCGGGGSGGGGSSDTGRPFVEMYSEIPEIIHMTEGRELVIPCRVTSPNITVTLKKFPLDTLIPDGKRIIWDSRKGFIISNATYKEIGLLTCEATVNGHLYKTNYLTHRQTNTIIDVVLSPSHGIELSVGEKLVLNCTARTELNVGIDFNWEYPSSKHQHKKLVNRDLKTQSGSEMKKFLSTLTIDGVTRSDQGLYTCAASSGLMTKKNSTFVRVHEKDKTHTCPPCPAPEAAGAPSVFLFPPKPKDTLMISRTPEVTCVVVDVSHEDPEVKFNWYVDGVEVHNAKTKPREEQYNSTYRVVSVLTVLHQDWLNGKEYKCKVSNKALPAPIEKTISKAKGQPREPQVYTLPPSREEMTKNQVSLTCLVKGFYPSDIAVEWESNGQPENNYKTTPPVLDSDGSFFLYSKLTVDKSRWQQGNVFSCSVMHEALHNHYTQKSLSCSPGK
# light: DIQLTQSPSSLSASVGDRVTITCSASISVSYLYWYQQKPGKAPKLLIYDDSSLASGVPSRFSGSGSGTDFTLTISSLQPEDFATYYCQQWSGYPYTFGQGTKVEIKRTVAAPSVFIFPPSDEQLKSGTASVVCLLNNFYPREAKVQWKVDNALQSGNSQESVTEQDSKDSTYSLSSTLTLSKADYEKHKVYACEVTHQGLSSPVTKSFNRGEC
# notes: Trap-antibody fusion, VEGF trap between the Fab region (VH variant I) and the Fc; light chain variant III
# B16: dual inhibitor molecule H (AntiIL-6-VEGF Trap) (other)
# heavy: B15 heavy
# light: B15 light with D50A
# notes: Trap-antibody fusion, VEGF trap between the Fab region (VH variant I) and the Fc; light chain variant IV
# B17: dual inhibitor molecule I (AntiIL-6-VEGF Trap) (other)
# heavy: B15 heavy
# light: B15 light with S52N
# notes: Trap-antibody fusion, VEGF trap between the Fab region (VH variant I) and the Fc; light chain variant V
# B18: dual inhibitor molecule J (AntiIL-6-VEGF Trap) (other)
# heavy: B15 heavy with I34W
# light: B15 light
# notes: Trap-antibody fusion, VEGF trap between the Fab region (VH variant II) and the Fc; light chain variant III
# B19: dual inhibitor molecule K (AntiIL-6-VEGF Trap) (other)
# heavy: B15 heavy with I34W
# light: B15 light with D50A
# notes: Trap-antibody fusion, VEGF trap between the Fab region (VH variant II) and the Fc; light chain variant IV
# B20: dual inhibitor molecule L (AntiIL-6-VEGF Trap) (other)
# heavy: EVQLVESGGGLVQPGGSLRLSCAASGFTFSPFAWSWVRQAPGKGLEWVAKISPGGSWTYYSDTVTDRFTFSLDTSKSTAYLQMNSLRAEDTAVYYCARQLWGYYALDVWGQGTLVTVSSASTKGPSVFPLAPSSKSTSGGTAALGCLVKDYFPEPVTVSWNSGALTSGVHTFPAVLQSSGLYSLSSVVTVPSSSLGTQTYICNVNHKPSNTKVDKKVEPKSCGGGGSGGGGSSDTGRPFVEMYSEIPEIIHMTEGRELVIPCRVTSPNITVTLKKFPLDTLIPDGKRIIWDSRKGFIISNATYKEIGLLTCEATVNGHLYKTNYLTHRQTNTIIDVVLSPSHGIELSVGEKLVLNCTARTELNVGIDFNWEYPSSKHQHKKLVNRDLKTQSGSEMKKFLSTLTIDGVTRSDQGLYTCAASSGLMTKKNSTFVRVHEKDKTHTCPPCPAPEAAGAPSVFLFPPKPKDTLMISRTPEVTCVVVDVSHEDPEVKFNWYVDGVEVHNAKTKPREEQYNSTYRVVSVLTVLHQDWLNGKEYKCKVSNKALPAPIEKTISKAKGQPREPQVYTLPPSREEMTKNQVSLTCLVKGFYPSDIAVEWESNGQPENNYKTTPPVLDSDGSFFLYSKLTVDKSRWQQGNVFSCSVMHEALHNHYTQKSLSCSPGKPGK
# light: B15 light with S52N
# notes: Trap-antibody fusion, VEGF trap between the Fab region (VH variant II) and the Fc; light chain variant V
# Target: T1, human IL-6 (human, UniProt P05231 30-212)
# Experiment: SPR Biacore, purified, Protein A capture, 37 C
# Method: (§1) Antibodies were captured on a Protein A chip (GE) by injecting 1:20 cell supernatant dilutions at 10 μL/min for 60 seconds. […] The sensor chip was regenerated by a 60 seconds injection of 10 mM Glycine pH 1.7 at the flow rate of 50 μL/min. […] For this setup, 1 μg/mL of purified antibody was injected over a Protein A chip at 10 μL/min for 25 seconds. […] The sensor chip was regenerated by a 60 seconds injection of 10 mM Glycine pH 1.7 at flow rate of 50 μL/min. Data analysis for supernatant and purified samples were performed using BIAevaluation software (GE). All sensorgrams were double reference subtracted and fit using a 1:1 Langmuir binding model.
# T1 sequence (P05231 30-212 limits assumed): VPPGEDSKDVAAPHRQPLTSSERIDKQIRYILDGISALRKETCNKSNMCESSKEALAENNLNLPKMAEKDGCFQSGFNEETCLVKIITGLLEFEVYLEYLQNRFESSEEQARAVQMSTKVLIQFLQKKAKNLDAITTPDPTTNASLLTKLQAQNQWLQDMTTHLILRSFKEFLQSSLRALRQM
Binder,Kd [nM],koff [s⁻¹],kon [M⁻¹ s⁻¹]
B1,0.195,0.000238,1.22e+06
B2,0.109,0.000406,3.72e+06
B3,0.251,0.000694,2.76e+06
B4,0.188,0.000279,1.49e+06
B5,0.149,0.000336,2.26e+06
B6,0.117,0.000424,3.61e+06
B7,0.263,0.000481,1.83e+06
B8,0.238,0.000385,1.62e+06
B9,0.214,0.000132,615000

# Target: T2, human IL-6 (human, UniProt P05231 30-212)
# T2 construct: IL-6 flowed over captured antibodies
# Experiment: SPR Biacore, purified Ab on Protein A chip, 37 C
# Method: as §1
# T2 sequence (P05231 30-212 limits assumed): as above
Binder,Kd [nM],koff [s⁻¹],kon [M⁻¹ s⁻¹]
B10,0.286,0.000319,1.12e+06
B11,0.244,0.000412,1.69e+06
B12,0.212,0.000254,1.2e+06
B13,0.198,0.000327,1.65e+06
B14,0.252,0.000401,1.59e+06

# Target: T1, human IL-6
# Experiment: SPR Biacore, supernatant, Protein A capture, 37 C
# Outline: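 Antibodies from 1:20-diluted culture supernatant in HBS-EP+ were captured on a Protein A chip at 37 C, with 10 mM glycine pH 1.7 regeneration. Sensorgrams were double-reference subtracted and fitted to a 1:1 Langmuir model.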
Binder,Kd [nM],koff [s⁻¹],kon [M⁻¹ s⁻¹]
B1,0.403,0.000607,1.5e+06
B2,0.0834,0.00486,5.82e+07
B3,0.233,0.0016,6.87e+06
B4,0.191,0.000822,4.29e+06
B5,0.148,0.000734,4.97e+06
B6,0.114,0.000913,8.03e+06
B7,0.204,0.00278,1.36e+07
B8,0.184,0.000922,5.01e+06
B9,0.649,0.000559,861000

# Target: T2, human IL-6
# Experiment: SPR Biacore, supernatant Ab on Protein A chip, 37 C
Binder,Kd [nM],koff [s⁻¹],kon [M⁻¹ s⁻¹]
B10,0.611,0.000414,677000
B11,0.296,0.000483,1.63e+06
B12,0.166,0.000539,3.24e+06
B13,0.242,0.000485,2e+06
B14,0.246,0.000529,2.15e+06

# Target: T3, recombinant human IL-6 (human, UniProt P05231 30-212)
# T3 construct: Bought protein
# Experiment: SPR Biacore, purified dual inhibitor on Protein A chip, IL-6 analyte, 37 C
# T3 sequence (P05231 30-212 limits assumed): as above
Binder,Kd [nM],koff [s⁻¹],kon [M⁻¹ s⁻¹]
B15,0.451,0.000567,1.26e+06
B16,0.396,0.000529,1.34e+06
B17,0.435,0.000499,1.15e+06
B18,0.468,0.000664,1.42e+06
B19,0.452,0.000579,1.28e+06
B20,0.436,0.00065,1.49e+06

# Target: T3, recombinant human IL-6
# Experiment: SPR Biacore, supernatant dual inhibitor on Protein A chip, IL-6 analyte, 25 C
Binder,Kd [nM],koff [s⁻¹],kon [M⁻¹ s⁻¹]
B15,0.589,0.000149,252000
B16,0.356,0.000162,454000
B17,0.679,0.000147,217000
B18,0.28,0.000149,534000
B19,0.282,0.000178,629000
B20,0.239,0.000169,705000
